# According to paper PMC2802489:
# B1: Adh2 (Saccharomyces cerevisiae S288C) (protein)
# chain: SIPETQKAIIFYESNGKLEHKDIPVPKPKPNELLINVKYSGVCHTDLHAWHGDWPLPTKLPLVGGHEGAGVVVGMGENVKGWKIGDYAGIKWLNGSCMACEYCELGNESNCPHADLSGYTHDGSFQEYATADAVQAAHIPQGTDLAEVAPILCAGITVYKALKSANLRAGHWAAISGAAGGLGSLAVQYAKAMGYRVLGIDGGPGKEELFTSLGGEVFIDFTKEKDIVSAVVKATNGGAHGIINVSVSEAAIEASTRYCRANGTVVLVGLPAGAKCSSDVFNHVVKSISIVGSYVGNRADTREALDFFARGLVKSPIKVVGLSSLPEIYEKMEKGQIAGRYVVDTSK
# B2: YqhD (Escherichia coli K-12) (protein)
# chain: NNFNLHTPTRILFGKGAIAGLREQIPHDARVLITYGGGSVKKTGVLDQVLDALKGMDVLEFGGIEPNPAYETLMNAVKLVREQKVTFLLAVGGGSVLDGTKFIAAAANYPENIDPWHILQTGGKEIKSAIPMGCVLTLPATGSESNAGAVISRKTTGDKQAFHSAHVQPVFAVLDPVYTYTLPPRQVANGVVDAFVHTVEQYVTKPVDAKIQDRFAEGILLTLIEDGPKALKEPENYDVRANVMWAATQALNGLIGAGVPQDWATHMLGHELTAMHGLDHAQTLAIVLPALWNEKRDTKRAKLLQYAERVWNITEGSDDERIDAAIAATRNFFEQLGVPTHLSDYGLDGSSIPALLKKLEEHGMTQLGENHDITLDVSRRIYEAAR
# Experiments:
# Test in all cases: purified protein
# CC=O = settings: 0.25 mM NADH, 50 mM MOPS pH 7.0, 37 °C, 100 nM enzyme
# CC(C)C=O = settings: 0.25 mM NADH, 50 mM MOPS pH 7.0, 37 °C, 100 nM enzyme
# purified protein [1] = substrate: CC=O; assay type: biochemical, Saccharomyces cerevisiae; settings: 0.25 mM NADH, 50 mM MOPS pH 7.0, 37 °C, 100 nM enzyme
# purified protein [2] = substrate: CC=O; assay type: biochemical, Escherichia coli; settings: 0.25 mM NADPH, 50 mM MOPS pH 7.0, 37 °C, 100 nM enzyme
# purified protein [3] = substrate: CC(C)C=O; assay type: biochemical, Escherichia coli; settings: 0.25 mM NADPH, 50 mM MOPS pH 7.0, 37 °C, 100 nM enzyme
molecule,measurement,setting,value
AdhA (Lactococcus lactis subsp. lactis Il1403),Km,CC=O,500 ± 200 µM
same,kcat,CC=O,10 ± 0.3 s⁻¹
same,kcat/Km,CC=O,20900 M⁻¹ s⁻¹
same,Km,CC(C)C=O,9100 ± 2900 µM
same,kcat,CC(C)C=O,6.6 ± 0.2 s⁻¹
same,kcat/Km,CC(C)C=O,800 M⁻¹ s⁻¹
B1,Km,purified protein [1],140 ± 20 µM
same,kcat,purified protein [1],6.6 ± 0.5 s⁻¹
same,kcat/Km,purified protein [1],46900 M⁻¹ s⁻¹
B2,Km,purified protein [2],27600 ± 12400 µM
same,kcat,purified protein [2],1.1 ± 0.1 s⁻¹
same,kcat/Km,purified protein [2],50 M⁻¹ s⁻¹
same,Km,purified protein [3],1800 ± 1300 µM
same,kcat,purified protein [3],1 ± 0.1 s⁻¹
